Test results reported in the nanobody polyreactivity screen of Harvey et al. (2022).

Experiment: yeast display, Sf9 membrane polyspecificity reagent, FACS + sequencing; frameworks hold sequencing errors
Outline: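 After 36–48 hours of galactose induction, yeast (Saccharomyces cerevisiae BJ5465) displaying a synthetic nanobody library were stained at 4 °C for 1 hour with 10% biotinylated, detergent-solubilized Sf9 membrane reagent. Streptavidin microbeads enriched the stained cells before FACS sorting into low and high (top ~1%) gates on anti-HA and streptavidin fluorescence. Each clone's polyreactivity label reflects its gate of origin.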
With “QVQLVESGGGLVQAGGSLRLSCAASGRTFWQYSMGWYRQAPGKERELVAAITSSGGSTYYADSVKGRFTISRDNAKNTVYLQMNSLKPEDTAVYYCAADTRYYRYYYWGQGTQVTVSS” the “polyreactivity (PSR sort gate)” value was “high polyreactivity”. In the case of “QVQLVESGGGLVQAGGSLRLSCAASGRTFWRYAMGWYRQAPGKERELVAAISVSGGTTYYADSVKGRFTISRDNAKNTVYLQMNSLKPEDTAVYYCAARYGSIYSILYYGFDYWGQGTQVTVSS”, the “polyreactivity (PSR sort gate)” value is reported as “high polyreactivity”. With “QVQLVESGGGLVQAGGSLRLSCAASGRTFWRYAMGWYRQAPGKERELVAGITSRGGSTYYADSVKGRFTISRDNAKNTVYLQMNSLKPEDTAVYYCNRRSQVHSHSKHDYWGQGTQVTVSS” the “polyreactivity (PSR sort gate)” value was “low polyreactivity”. For “QVQLVESGGGLVQAGGSLRLSCAASGRTFWRYAMGWYRQAPGKERELVATISSGGSTNYADSVKGRFTISRDNAKNTVYLQMNSLKPEDTAVYYCNAEYSYYDLLAYDYWGQGTQVTVSS”, the “polyreactivity (PSR sort gate)” value was “low polyreactivity”. With “QVQLVESGGGLVQAGGSLRLSCAASGRTFWSNAMGWSRQAPGKERELVAAITWSGGSTSYADSVKGRFTISRDNAKNTVYLQMNSLKTEDTAVYYCAAGKGVELAKLDYWGQGTQVTVSS” the “polyreactivity (PSR sort gate)” value was “low polyreactivity”. In the case of “QVQLVESGGGLVQAGGSLRLSCAASGRTFWSYAMGWYRQAPGKERELVATITGRGGSTYYADSVKGRFTISRDNAKNTVYLQMNSLKPEDTAVYYCARSQYSRSPSRMGYWGQGTQVTVSS”, the “polyreactivity (PSR sort gate)” value is reported as “high polyreactivity”. With “QVQLVESGGGLVQAGGSLRLSCAASGRTFWTNAMGWYRQAPGKERELVAAITKSGGRTYYADSVKGRFTISRDNAKNTVYLQMNRLKPEDTAVYYCAAYSQGEGGYWGQGTQVTVSS” the “polyreactivity (PSR sort gate)” value was “high polyreactivity”. For “QVQLVESGGGLVQAGGSLRLSCAASGRTFWTNAMGWYRQAPGKERELVASINWSGGGTYYADSVKGRFTISRDNAKNTVYLQMNSLKPEDTAVYYCNVYSNPEKEYEYWGQGTQVTVSS”, the “polyreactivity (PSR sort gate)” value was “low polyreactivity”. For “QVQLVESGGGLVQAGGSLRLSCAASGRTFWVNAMGWYRQAPGKERELVAAITSSVSSTYYADSVKGRFTISRDNAKNTVYLQMNSLKPEDTAVYYCAAGVGRGMYYWGQGTQVTVSS”, the “polyreactivity (PSR sort gate)” value was “low polyreactivity”. For “QVQLVESGGGLVQAGGSLRLSCAASGRTFWVYAMGWYRQAPGKERELVAAINNGGSTTYADSVKGRFTISRDNAKNTVYLQMNSLKPEDTAVYYCAADSVKQVRYGNVGHDYWGQGTQVTVSS”, the “polyreactivity (PSR sort gate)” value was “low polyreactivity”. For “QVQLVESGGGLVQAGGSLRLSCAASGRTFWVYAMGWYRQAPGKERELVAAIRRGGITNYADSVKGRFTISRDNAKNTVYLQMNSLKPEDTAVYYCATDNYGYLTRYYYWGQGTQVTVSS”, the “polyreactivity (PSR sort gate)” value was “low polyreactivity”. In the case of “QVQLVESGGGLVQAGGSLRLSCAASGRTFWVYAMGWYRQAPGKERELVAAISLSGVSTYYADSVKGRFTISRDNAKNTVYLQMNSLKPDDTAVYYCAAPLIYTPLKYHYWGQGTQVTVSS”, the “polyreactivity (PSR sort gate)” value is reported as “low polyreactivity”. With “QVQLVESGGGLVQAGGSLRLSCAASGRTFWVYAMGWYRQAPGKERELVAGISSGASTYYADSVKGRFTISRDNAKNTVYLQMNSLKPEDTAVYYCAAPYYRLTGWSRYDYWGQGTQVTVSS” the “polyreactivity (PSR sort gate)” value was “high polyreactivity”. For “QVQLVESGGGLVQAGGSLRLSCAASGRTFWWYAMGWYRQAPGKEREFVAAISQRGTSTYYADSVKGRFTISRDNAKNTVYLQMNSLKPEDTAVYYCAAPLYRRWEVTYDYWGQGTQVTVSS”, the “polyreactivity (PSR sort gate)” value was “high polyreactivity”. With “QVQLVESGGGLVQAGGSLRLSCAASGRTFWYNAMGWYRQAPGKEREFVAAITSSGGSTYYADSVKGRFTISRDNAKHTVFLQMNSLKPEDTAVYYCNKRPGPYKWPPRHDYWGQGTQVTVSS” the “polyreactivity (PSR sort gate)” value was “low polyreactivity”. With “QVQLVESGGGLVQAGGSLRLSCAASGRTFWYNAMGWYRQAPGKERELVAAISSTGGRTYYADSVKGRFTISRDNAKNTVYLQMNSLKPEDTAVYYCAKYPSKSYVPGDYWGQGTQVTVSS” the “polyreactivity (PSR sort gate)” value was “low polyreactivity”. With “QVQLVESGGGLVQAGGSLRLSCAASGRTFWYYAMGWYRHAPGKERELVAAITSGGSTNYADSVKGRFTISRDNAKNTVSLQMNSLKPEDTAVYYCAKLFRQRRYWDWYDYWGQGTQVTVSS” the “polyreactivity (PSR sort gate)” value was “high polyreactivity”. For “QVQLVESGGGLVQAGGSLRLSCAASGRTFWYYAMGWYRQAPGKAREWVATISYRGGSTYYADSVKGRFTISRDNAKNTVNLQMNSLKPEDTAVYYCAAKQWWGGRPKVDYWGQGTQVTVSS”, the “polyreactivity (PSR sort gate)” value was “high polyreactivity”. With “QVQLVESGGGLVQAGGSLRLSCAASGRTFWYYDKGWYRQAPGKERELVAAITNGDRTYYADSVKGRFTISRDNAKNTVYLQMNSLKPEDTAVYYCAKETWGTRHDYWGQGTQVTVSS” the “polyreactivity (PSR sort gate)” value was “high polyreactivity”. With “QVQLVESGGGLVQAGGSLRLSCAASGRTFWYYGMGWYRQAPGKERELVAAISRSGGRTSYADSVKGRFTISRDNAKNTVYLQMNSLKPEDTAVYYCATDGYYRYGYWGQGTQVTVSS” the “polyreactivity (PSR sort gate)” value was “high polyreactivity”. For “QVQLVESGGGLVQAGGSLRLSCAASGRTFWYYTMGWYRQAPGKERELVAAISSGGRTNYADSVKGRFTISRDNAKNTVYLQMNSLKPEYTAVYYCATSRYYKYVERDYWGQGTQVTVSS”, the “polyreactivity (PSR sort gate)” value was “high polyreactivity”. For “QVQLVESGGGLVQAGGSLRLSCAASGRTFWYYTMGWYRQAPGKERELVAGITGTGGSTYYADSVKGRFTISRDNAKNTVYLQMNSLKPEDTAVYYCNALRRSQRYWDPYGYDYWGQGTQVTVSS”, the “polyreactivity (PSR sort gate)” value was “high polyreactivity”. With “QVQLVESGGGLVQAGGSLRLSCAASGRTFYANAMGWYRQAPGKERELVASITTSGGTYYADSVKGRFTISRDNAKNTVYLQMNSLKPEDTAVYYCAAEVYRSIGYDYWGQGTQVTVSS” the “polyreactivity (PSR sort gate)” value was “low polyreactivity”. With “QVQLVESGGGLVQAGGSLRLSCAASGRTFYANTMGWYRQAPGKERELVAAITVRGGTTFYADSVKGRFTISRDNAKNTVYLQMNSLKPEDTAVYYCAAYGYRYSHEYYYWGQGTQVTVSS” the “polyreactivity (PSR sort gate)” value was “high polyreactivity”. For “QVQLVESGGGLVQAGGSLRLSCAASGRTFYAYAMGWYRQAPGKERELVAAITSGASTYYADSVKGRFTISRDNAKNTVYLQMFSLKPEDTAVYYCNAEYYEGYIGVPGSFWPYEYWGQGTQVTVSS”, the “polyreactivity (PSR sort gate)” value was “low polyreactivity”. With “QVQLVESGGGLVQAGGSLRLSCAASGRTFYAYDMGWYRQAPGKERELVAAINSGDRTNYADSVKGRFTISRDNAKNTDYLQMNSLKPEDTAVYYCAADWYTPQGVGLDYWGQGTQVTVSS” the “polyreactivity (PSR sort gate)” value was “low polyreactivity”. In the case of “QVQLVESGGGLVQAGGSLRLSCAASGRTFYAYTMGWYRTAPGKERELVAAITRRGGSTYYADSVKGRFTISRDNAKNTVYLQMNSLKPEDTAVYYCAASYSHRNYGLTYDYWGQGTQVTVSS”, the “polyreactivity (PSR sort gate)” value is reported as “high polyreactivity”. In the case of “QVQLVESGGGLVQAGGSLRLSCAASGRTFYDNAMGWYRQAPGKERELVAVISRSGSTYYADSVKGRFTISRDNAKNTVYLQMNSLKPEDTAVYYCARRGVWGVTYSRLYHWGQGTLVTVSS”, the “polyreactivity (PSR sort gate)” value is reported as “high polyreactivity”. With “QVQLVESGGGLVQAGGSLRLSCAASGRTFYDYTMGRYRQAPGKERELVAAISQRGGSTYYADSVKGRFTISRDNAKNTVYLQMNSLKPEDTAVYYCAARTSYSGNKYYYWGQGTQVTVSS” the “polyreactivity (PSR sort gate)” value was “high polyreactivity”. For “QVQLVESGGGLVQAGGSLRLSCAASGRTFYDYTMGWYRQAPGKERELVAVISKRGGSTYYADSVKGRFTISRDNAKNTVYLQMNSLKPEDTAVYYCAAKSGRNVYQKVDYWGQGTQVTVSS”, the “polyreactivity (PSR sort gate)” value was “high polyreactivity”. For “QVQLVESGGGLVQAGGSLRLSCAASGRTFYFNAMGWYRQAPGKERELVAAITFSGGSTNYADSVKGRFTISRDNAKNTVYLQMNSLKPEDTAVYYCAAPKYLGTDEYDYWGQGTQVTVSS”, the “polyreactivity (PSR sort gate)” value was “low polyreactivity”. In the case of “QVQLVESGGGLVQAGGSLRLSCAASGRTFYFYAMGWYRQAPGKERELVAAIDFSGDSTYYADSVKGRFTISRDNAKNTVYLQMNSLKPEDTAVYYCAAEIYIGEQPYDYWGQGTQVTVSS”, the “polyreactivity (PSR sort gate)” value is reported as “low polyreactivity”.
